From patent US20240400614A1, “CLEAVABLE PEPTIDES AND METHODS OF USE THEREOF” (Bright Peak Therapeutics AG, priority 2023, published 2024)
Square brackets hold non-standard residues; d marks the D form. Ends that are not written are not given here. Tyr(3-NO2) = N[C@@H](Cc1ccc(O)c([N+](=O)[O-])c1)C(=O)O; 2Abz = Nc1ccccc1C(=O)O

Experiments:
Type in all cases: biochemical
uPA = uPA (Homo sapiens, UniProt P00749); test: FRET peptide cleavage efficiency with uPA
matriptase = biological target: T1, matriptase (Homo sapiens, UniProt Q9Y5Y6); test: FRET peptide cleavage efficiency with matriptase
T1 construct: purchased R&D Systems 3946-SEB
T1 sequence (Q9Y5Y6 615-855 limits assumed): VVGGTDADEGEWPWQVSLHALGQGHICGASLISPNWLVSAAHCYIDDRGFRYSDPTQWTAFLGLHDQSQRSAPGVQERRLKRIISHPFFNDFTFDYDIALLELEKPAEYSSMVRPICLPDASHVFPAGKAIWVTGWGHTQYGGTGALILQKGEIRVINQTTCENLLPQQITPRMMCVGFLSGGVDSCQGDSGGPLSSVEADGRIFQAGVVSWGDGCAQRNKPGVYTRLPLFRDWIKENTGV

MMP-2 = biological target: T2, MMP-2 (Homo sapiens, UniProt P08253); test: FRET peptide cleavage efficiency with MMP-2
T2 construct: purchased SIGMA PF023
T2 sequence (P08253 110-660): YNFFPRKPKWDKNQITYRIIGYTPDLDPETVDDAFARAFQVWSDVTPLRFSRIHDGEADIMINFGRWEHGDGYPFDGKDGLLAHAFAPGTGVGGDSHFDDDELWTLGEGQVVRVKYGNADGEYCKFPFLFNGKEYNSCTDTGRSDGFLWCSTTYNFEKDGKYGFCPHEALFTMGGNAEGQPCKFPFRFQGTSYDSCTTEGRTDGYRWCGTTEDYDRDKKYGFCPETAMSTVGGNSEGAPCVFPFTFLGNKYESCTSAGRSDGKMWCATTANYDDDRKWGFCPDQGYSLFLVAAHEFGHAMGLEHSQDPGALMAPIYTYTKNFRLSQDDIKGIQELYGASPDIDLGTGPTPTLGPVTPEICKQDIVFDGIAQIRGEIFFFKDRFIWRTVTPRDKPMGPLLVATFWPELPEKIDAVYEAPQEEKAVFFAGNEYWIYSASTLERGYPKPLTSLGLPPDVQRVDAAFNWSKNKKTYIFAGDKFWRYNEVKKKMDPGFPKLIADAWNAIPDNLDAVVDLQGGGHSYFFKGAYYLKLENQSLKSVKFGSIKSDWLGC

[1] = 200 uM linker, 1 ug/ml protease, 37° C., buffer A pH 8.5
[2] = 200 uM linker, 1 ug/ml protease, 37° C., buffer B pH 9.0
[3] = 200 uM linker, 1 ug/ml protease, 37° C., buffer C pH 7.5

Sequence | % cleavage uPA t = 15 min (uPA; [1]) [%] | % cleavage uPA t = 60 min (uPA; [1]) [%] | % cleavage uPA t = 120 min (uPA; [1]) [%] | % cleavage Matriptase t = 15 min (matriptase; [2]) [%] | % cleavage Matriptase t = 60 min (matriptase; [2]) [%] | % cleavage Matriptase t = 120 min (matriptase; [2]) [%] | % cleavage MMP-2 t = 15 min (MMP-2; [3]) [%] | % cleavage MMP-2 t = 60 min (MMP-2; [3]) [%] | % cleavage MMP-2 t = 120 min (MMP-2; [3]) [%] | % cleavage uPA t = 15 min (uPA) [%] | % cleavage uPA t = 60 min (uPA) [%] | % cleavage uPA t = 120 min (uPA) [%] | % cleavage Matriptase t = 15 min (matriptase) [%] | % cleavage Matriptase t = 60 min (matriptase) [%] | % cleavage Matriptase t = 120 min (matriptase) [%] | % cleavage MMP-2 t = 15 min (MMP-2) [%] | % cleavage MMP-2 t = 60 min (MMP-2) [%] | % cleavage MMP-2 t = 120 min (MMP-2) [%]
SSRAVFRKNLGPLGLAG ([2Abz]SSRAVFRKNLGPLGLAG[Tyr(3-NO2)]-NH2) [LNK002] | 5 | 10 | 18 | 89 | 85 | 84 | 77 | 99 | 98 | – | – | – | – | – | – | – | – | –
RYGKSAPLGLAG ([2Abz]RYGKSAPLGLAG[Tyr(3-NO2)]-NH2) [LNK027] | 3 | 9 | 17 | 99 | 97 | 98 | 66 | 99 | 99 | – | – | – | – | – | – | – | – | –
SGRVLGPANLVG (Abz-SGRVLGPANLVG[Tyr(3-NO2)]) [LNK006] | – | – | – | – | – | – | – | – | – | 0 | 0 | 1 | 19 | 71 | 92 | 98 | 98 | 96
KWGKSAPLGLAG ([2Abz]KWGKSAPLGLAG[Tyr(3-NO2)]-NH2) [LNK026] | 0 | 1 | 3 | 97 | 86 | 86 | 69 | 98 | 98 | – | – | – | – | – | – | – | – | –
PASNRRLPLGLAG ([2Abz]PASNRRLPLGLAG[Tyr(3-NO2)]-NH2) [LNK018] | 0 | 0 | 0 | 49 | 92 | 97 | 40 | 83 | 87 | – | – | – | – | – | – | – | – | –
SGRVLTLRKAPWGLLE ([2Abz]SGRVLTLRKAPWGLLE[Tyr(3-NO2)]-NH2) [LNK004] | 6 | 16 | 27 | 98 | 98 | 95 | 16 | 50 | 74 | – | – | – | – | – | – | – | – | –
SGRVLGPAGLVG (Abz-SGRVLGPAGLVG[Tyr(3-NO2)]) [LNK005] | – | – | – | – | – | – | – | – | – | 0 | 0 | 1 | 15 | 63 | 86 | 100 | 98 | 97
RQRRSAAPLGLAG ([2Abz]RQRRSAAPLGLAG[Tyr(3-NO2)]-NH2) [LNK028] | 0 | 1 | 2 | 97 | 86 | 79 | 72 | 99 | 99 | – | – | – | – | – | – | – | – | –
SGRVLPYAMTA ([2Abz]SGRVLPYAMTA[Tyr(3-NO2)]-NH2) [LNK024] | 1 | 0 | 1 | 44 | 92 | 98 | 55 | 97 | 99 | – | – | – | – | – | – | – | – | –
